Reference: PMC2928010
Like-named read-outs stand apart in the source and are kept apart here.

How the values were obtained:
[1] = biological target: RNC–SRP: coumarin-labeled SRP C235 loaded with ribosome–nascent chain complex (E. coli) (UniProt P0AGD7); assay: FRET or BRET
[2] = biological target: RNC–SRP: coumarin-labeled SRP C235 loaded with ribosome–nascent chain complex (E. coli) (UniProt P0AGD7); assay: FRET or BRET; remark: listed apart in the source
[3] = biological target: acrylodan-labeled FtsY C356 (E. coli) (UniProt P10121); assay: other fluorescence titration
[4] = biological target: acrylodan-labeled FtsY C356 (E. coli) (UniProt P10121); assay: other fluorescence titration; remark: listed apart in the source

Substance | Kd [1] | Kd [2] | Kd [3] | Kd [4]
BODIPY-fluorescein–labeled FtsY C487 (from UniProt P10121 1-497) (receptor) | 68 nM | 104 nM |  | 
signal recognition particle (SRP): Ffh with 4.5S RNA (from UniProt P0AGD7 1-453) (complex) |  |  | 145 nM | < 4 nM
